The source of these data is the supplement of paper PMC7877785.

± gives the uncertainty stated by the source.

The nature of the data set: self-splicing fitness, log relative to wild type (ln ratio); higher = more splicing; Tetrahymena group I intron in knt gene, E. coli kanamycin selection, DiMSum; sequences stand for … in CUCUCU…GGAGGGAAAAGUUAUCAGGCAUGCACCUGGUAGCUAGUCUUUAAACCAAUAGAUUGCAUCGGUUUAAAAGGCAAGACCGUCAAAUUGCGGGAAAGGGGUCAACAGCCGUUCAGUACCAAGUCUCAGGGGAAACUUUGAGAUGGCCUUGCAAAGGGUAUGGUAAUAAGCUGACGGACAUGGUCCUAACCACGCAGCCAAGUCCUAAGUCAACAGAUCUUCUGUUGAUAUGGAUGCAGUUCACAGACUAAAUGUCGGUCGGGGAAGAUGUAUUCUUCUCAUAAGAUAUAGUCGGACCUCUCCUUAAUGGGAGCUAGCGGAUGAAGUGAUGCAACACUGGAGCCGCUGGGAACUAAUUUGUAUGCGAAAGUAUAUUGAUUAGUUUUGGAGUACUCGUGGUCG
The essentials: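 Fitness was computed with DiMSum as the error-weighted combination of replicate fold changes, kanamycin versus none, each normalised to wild type. The library randomised all eight intron nucleotides of the P1ex region, with the intron placed in the knt kanamycin-resistance gene on pET-22b(+) in E. coli BL21(DE3). Six replicate transformations were grown overnight at 37°C or 30°C on LB agar with or without 25 μg/mL kanamycin, plus 100 μg/mL carbenicillin, 50 μM IPTG and 0.2% rhamnose. Pooled colonies were amplicon-sequenced on an Illumina HiSeq 2500.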

As for GCAGAGCAAUAUUACGCCAU, the “self-splicing fitness (ln)” value runs as follows: (30 °C) -3.75 ± 0.4; (37 °C) -2.78 ± 0.32.

Regarding AAUUAGCAAUAUUACGCGUC, the “self-splicing fitness (ln)” value runs as follows: (30 °C) -2.69 ± 0.16; (37 °C) -1.1 ± 0.14.

GCAAAGCAAUAUUACGACCA: the “self-splicing fitness (ln)” value by setting is: (30 °C) -0.267 ± 0.15; (37 °C) -0.678 ± 0.19.

Take AGUAAGCAAUAUUACGUUGC: the “self-splicing fitness (ln)” value was -4.14 ± 0.21 (30 °C) and -2.21 ± 0.17 (37 °C).

Regarding UAUGAGCAAUAUUACGAUGA, the “self-splicing fitness (ln)” value (30 °C) is -1.41 ± 0.12 and the “self-splicing fitness (ln)” value (37 °C) is -1.68 ± 0.16.

Regarding UGGCAGCAAUAUUACGACGC, the “self-splicing fitness (ln)” value (37 °C) is -1.72 ± 0.24.

For the sequence ACUAAGCAAUAUUACGUGCG, the “self-splicing fitness (ln)” value reads like this: (30 °C) -0.891 ± 0.086; (37 °C) -0.294 ± 0.098.

Turning to CUAGAGCAAUAUUACGAAGU, the “self-splicing fitness (ln)” value (30 °C) was -2.56 ± 0.26.

As for GUCGAGCAAUAUUACGACAA, the “self-splicing fitness (ln)” value reads like this: (30 °C) -1.97 ± 0.24; (37 °C) -2.85 ± 0.4.

Take ACCGAGCAAUAUUACGCCCU: the “self-splicing fitness (ln)” value was -2.6 ± 0.25 (30 °C) and 0.248 ± 0.21 (37 °C).

Consider CCAGAGCAAUAUUACGGCAA, for which the “self-splicing fitness (ln)” value reads like this: (30 °C) -2.25 ± 0.38; (37 °C) -2.28 ± 0.3.

AGACAGCAAUAUUACGAGCC: the “self-splicing fitness (ln)” value reads like this: (30 °C) -0.273 ± 0.14; (37 °C) -0.798 ± 0.21.

Consider AAGCAGCAAUAUUACGGUAG, for which the “self-splicing fitness (ln)” value (30 °C) is -3.38 ± 0.15 and the “self-splicing fitness (ln)” value (37 °C) is -3.25 ± 0.2.

With CCAUAGCAAUAUUACGCUAG, the “self-splicing fitness (ln)” value is, setting by setting: (30 °C) -3.8 ± 0.47; (37 °C) -1.82 ± 0.23.

Turning to UGCAAGCAAUAUUACGCUAA, the “self-splicing fitness (ln)” value by setting is: (30 °C) -2.73 ± 0.17; (37 °C) 0.000151 ± 0.11.

As to AAGUAGCAAUAUUACGUGCA, the “self-splicing fitness (ln)” value (30 °C) was -0.781 ± 0.074 and the “self-splicing fitness (ln)” value (37 °C) is -0.196 ± 0.098.

Regarding ACACAGCAAUAUUACGAGGC, the “self-splicing fitness (ln)” value reads like this: (30 °C) -3.49 ± 0.17; (37 °C) -3.41 ± 0.29.

As for AAGCAGCAAUAUUACGCUGG, the “self-splicing fitness (ln)” value by setting is: (30 °C) -3.27 ± 0.21; (37 °C) -1.72 ± 0.15.

On to CUGUAGCAAUAUUACGGUCA, for which the “self-splicing fitness (ln)” value (30 °C) is -2.29 ± 0.25 and the “self-splicing fitness (ln)” value (37 °C) was -2.63 ± 0.34.

In the case of UCACAGCAAUAUUACGCUAA, the “self-splicing fitness (ln)” value (30 °C) was -2.39 ± 0.12 and the “self-splicing fitness (ln)” value (37 °C) is -2.27 ± 0.18.

For the sequence AGGUAGCAAUAUUACGUUCU, the “self-splicing fitness (ln)” value (30 °C) is -0.768 ± 0.014 and the “self-splicing fitness (ln)” value (37 °C) is -0.545 ± 0.033.

For the sequence GGGCAGCAAUAUUACGACUC, the “self-splicing fitness (ln)” value reads like this: (30 °C) 0.392 ± 0.12; (37 °C) 0.247 ± 0.17.

With CCAUAGCAAUAUUACGUGCA, the “self-splicing fitness (ln)” value runs as follows: (30 °C) -2.77 ± 0.19; (37 °C) -3.02 ± 0.24.

ACUCAGCAAUAUUACGAACC: the “self-splicing fitness (ln)” value (30 °C) is -0.758 ± 0.097 and the “self-splicing fitness (ln)” value (37 °C) is -0.326 ± 0.1.

Turning to GCUCAGCAAUAUUACGUCCA, the “self-splicing fitness (ln)” value was -1.28 ± 0.11 (30 °C) and -0.711 ± 0.13 (37 °C).

With AAAUAGCAAUAUUACGCACU, the “self-splicing fitness (ln)” value runs as follows: (30 °C) 0.478 ± 0.12; (37 °C) -0.381 ± 0.13.

On to UAGCAGCAAUAUUACGAAUA, for which the “self-splicing fitness (ln)” value was -0.737 ± 0.1 (30 °C) and -0.606 ± 0.11 (37 °C).

As for GUCCAGCAAUAUUACGCUAG, the “self-splicing fitness (ln)” value was -1.18 ± 0.076 (30 °C) and -0.908 ± 0.1 (37 °C).

On to AGAAAGCAAUAUUACGCUAU, for which the “self-splicing fitness (ln)” value by setting is: (30 °C) -2.98 ± 0.18; (37 °C) -1.62 ± 0.18.

GAGAAGCAAUAUUACGGAGG: for the setting “37 °C”, the “self-splicing fitness (ln)” value was -2.47 ± 0.21.

As for AUAAAGCAAUAUUACGAGGU, the “self-splicing fitness (ln)” value was -3.99 ± 0.16 (30 °C) and -1.9 ± 0.21 (37 °C).

As to GAUUAGCAAUAUUACGAGGA, the “self-splicing fitness (ln)” value is -2.13 ± 0.29 (30 °C) and -2.08 ± 0.31 (37 °C).

Take GUCAAGCAAUAUUACGCUUG: the “self-splicing fitness (ln)” value was -4.27 ± 0.36 (30 °C) and -2.06 ± 0.23 (37 °C).

Turning to AUCGAGCAAUAUUACGUUCU, the “self-splicing fitness (ln)” value by setting is: (30 °C) -1.32 ± 0.074; (37 °C) -1 ± 0.089.

Turning to CUCGAGCAAUAUUACGCGCA, the “self-splicing fitness (ln)” value (30 °C) was -2.79 ± 0.48.

In the case of GCUGAGCAAUAUUACGGUUC, the “self-splicing fitness (ln)” value by setting is: (30 °C) -2.48 ± 0.14; (37 °C) -1.69 ± 0.15.

Turning to CAUAAGCAAUAUUACGUGAU, the “self-splicing fitness (ln)” value was -3.26 ± 0.16 (30 °C) and -2.41 ± 0.16 (37 °C).

As for ACGGAGCAAUAUUACGCAGU, the “self-splicing fitness (ln)” value reads like this: (30 °C) -3.19 ± 0.34; (37 °C) -2.35 ± 0.49.

As for GCGCAGCAAUAUUACGCAAU, the “self-splicing fitness (ln)” value is, setting by setting: (30 °C) -1.56 ± 0.09; (37 °C) -0.27 ± 0.1.
